Experiments:
HMW-MAA [1] = experiment: ELISA of soluble scFv antibodies with cell lines; format: binding, human; details: soluble scFv clones isolated by panning with Colo38 cells
Experimental: FIG. 1. Selective reactivity in ELISA of soluble scFv C21 with HMW-MAA^+ human cell lines. […] Binding of scFv fragments was detected using SA-HRP. Results are expressed as absorbance at 490 nm. Human anti-anti-id scFv #119 ( ? ) was used as a specificity control.
The ELISA to test the reactivity of soluble scFv antibodies with synthetic peptides and melanoma cells and of mouse immune sera with melanoma cells and with peptides was performed as described (Desai et al., Cancer Res 58:2417-2425, 1998; Desai et al., J Immunol 165:3275-3283, 2000; Matsui et al., J Immunol 139:2088-2095, 1987). Results are expressed as absorbance of optical density (O.D.) at 450 nm. The competition assay to map the antigenic determinant recognized by scFv C21 was performed by mixing biotinylated scFv C21 (0.25 μg/well) with two-fold dilutions of mouse mAb or scFv PP or by mixing biotinylated mAb (at an optimal amount giving absorbance, measured at 450 nm of 1.0) with two fold dilutions of scFv PP. […] Binding of biotinylated scFv antibodies and biotinylated mAb to target cells was measured by sequential incubation with SA-HRP and substrate as described (Noronha et al., J Immunol 161:2968-2976, 1998). The results are expressed as percent inhibition by mAb, scFv or peptide (competitor or inhibitor) of scFv or mAb binding to HMW-MAA^+ cells. […]

HMW-MAA [2] = target: T1, HMW-MAA (Homo sapiens, UniProt Q6UVK1); experiment: Indirect immunoperoxidase staining of melanocytic lesions; format: binding; design: from tissue; host or cells: human nevi, primary and metastatic melanoma lesions (frozen sections)
T1 sequence (Q6UVK1 30-2322): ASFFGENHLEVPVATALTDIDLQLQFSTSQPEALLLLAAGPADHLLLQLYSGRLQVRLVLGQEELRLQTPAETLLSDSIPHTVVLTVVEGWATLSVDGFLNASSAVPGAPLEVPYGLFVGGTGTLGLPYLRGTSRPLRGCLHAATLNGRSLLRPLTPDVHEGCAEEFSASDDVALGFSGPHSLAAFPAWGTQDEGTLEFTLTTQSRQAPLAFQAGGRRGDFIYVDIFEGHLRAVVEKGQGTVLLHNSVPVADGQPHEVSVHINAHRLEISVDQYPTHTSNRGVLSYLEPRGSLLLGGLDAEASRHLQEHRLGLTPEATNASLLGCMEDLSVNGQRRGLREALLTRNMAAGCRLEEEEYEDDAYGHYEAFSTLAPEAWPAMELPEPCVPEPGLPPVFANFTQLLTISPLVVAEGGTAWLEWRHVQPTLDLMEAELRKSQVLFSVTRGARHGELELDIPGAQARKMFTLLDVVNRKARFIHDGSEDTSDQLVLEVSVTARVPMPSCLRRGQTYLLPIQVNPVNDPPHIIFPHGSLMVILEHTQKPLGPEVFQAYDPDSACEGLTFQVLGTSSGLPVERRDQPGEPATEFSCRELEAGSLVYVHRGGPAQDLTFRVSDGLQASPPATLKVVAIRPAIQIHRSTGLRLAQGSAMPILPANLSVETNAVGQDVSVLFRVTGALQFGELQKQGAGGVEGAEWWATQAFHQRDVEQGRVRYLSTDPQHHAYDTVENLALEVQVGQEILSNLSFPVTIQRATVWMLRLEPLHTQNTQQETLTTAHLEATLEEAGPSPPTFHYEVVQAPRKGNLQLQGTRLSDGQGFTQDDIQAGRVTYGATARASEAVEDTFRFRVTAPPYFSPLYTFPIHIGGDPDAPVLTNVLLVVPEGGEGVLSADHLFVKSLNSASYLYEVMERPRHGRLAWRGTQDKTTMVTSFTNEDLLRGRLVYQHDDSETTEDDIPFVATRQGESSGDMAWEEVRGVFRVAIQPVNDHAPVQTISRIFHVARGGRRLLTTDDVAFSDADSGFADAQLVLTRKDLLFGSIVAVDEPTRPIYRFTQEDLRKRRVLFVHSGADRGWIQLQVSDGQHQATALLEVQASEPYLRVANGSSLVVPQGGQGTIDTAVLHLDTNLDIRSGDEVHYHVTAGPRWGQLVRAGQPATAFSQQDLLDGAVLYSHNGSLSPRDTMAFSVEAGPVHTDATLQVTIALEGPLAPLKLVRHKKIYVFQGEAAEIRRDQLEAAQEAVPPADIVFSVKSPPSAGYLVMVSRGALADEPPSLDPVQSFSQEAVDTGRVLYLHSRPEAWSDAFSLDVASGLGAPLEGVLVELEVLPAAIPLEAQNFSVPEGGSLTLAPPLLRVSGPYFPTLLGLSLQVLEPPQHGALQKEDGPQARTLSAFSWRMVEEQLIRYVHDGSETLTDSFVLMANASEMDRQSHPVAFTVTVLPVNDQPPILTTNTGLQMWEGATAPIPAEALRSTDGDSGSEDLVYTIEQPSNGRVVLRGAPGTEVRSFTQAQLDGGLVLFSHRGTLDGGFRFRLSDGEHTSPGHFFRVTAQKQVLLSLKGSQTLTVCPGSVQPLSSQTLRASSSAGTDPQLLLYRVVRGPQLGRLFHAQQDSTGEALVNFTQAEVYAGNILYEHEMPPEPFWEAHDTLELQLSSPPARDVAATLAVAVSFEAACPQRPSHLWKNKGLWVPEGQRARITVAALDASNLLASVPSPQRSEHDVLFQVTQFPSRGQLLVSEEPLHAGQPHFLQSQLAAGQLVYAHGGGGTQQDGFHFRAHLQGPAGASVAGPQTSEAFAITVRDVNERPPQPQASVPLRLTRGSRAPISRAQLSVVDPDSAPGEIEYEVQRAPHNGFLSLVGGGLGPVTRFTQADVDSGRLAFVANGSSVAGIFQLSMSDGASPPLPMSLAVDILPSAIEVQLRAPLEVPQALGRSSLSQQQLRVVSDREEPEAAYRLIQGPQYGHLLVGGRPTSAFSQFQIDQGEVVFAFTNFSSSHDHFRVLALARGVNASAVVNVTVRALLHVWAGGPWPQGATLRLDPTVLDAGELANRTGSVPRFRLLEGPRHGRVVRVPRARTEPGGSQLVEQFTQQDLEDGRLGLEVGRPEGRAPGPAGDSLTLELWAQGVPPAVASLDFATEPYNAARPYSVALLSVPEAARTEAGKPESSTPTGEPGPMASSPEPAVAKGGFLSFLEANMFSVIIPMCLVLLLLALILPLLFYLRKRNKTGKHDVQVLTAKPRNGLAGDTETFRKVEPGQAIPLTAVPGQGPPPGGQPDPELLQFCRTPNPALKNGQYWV
Text: FIGS. 6A-6F. Immunohistochemical staining by scFv C21 of frozen surgically removed human nevi and melanoma lesions. scFv C21 stains a frozen nevus (FIG. 6A), a frozen primary melanoma lesion (FIG. 6B) and a frozen metastatic melanoma lesion (FIG. 6C). The specificity of the staining was monitored by staining the nevus (FIG. 6D), the primary (FIG. 6E) and the metastatic (FIG. 6F) melanoma lesions with the unrelated scFv #119.
The human melanoma cell lines Colo38, FO-1 and Melur and the human B lymphoid cell line LG2 were maintained in RPMI 1640 medium (Tissue Culture Media Facility, Roswell Park Cancer Institute (RPCI), Buffalo, N.Y.) supplemented with 10% serum plus supplement (BioWhittaker, Walkersville, Md.) and 2 mM L-glutamine (BioWhittaker). The human melanoma cell lines M14 and SK-MEL-28, the human fibroblasts FF2376, the human breast carcinoma cell line T47D, the human bladder carcinoma cell line T24, the human prostate carcinoma cell line PC3, the human B lymphoid cell lines JY and LKT13, and the rat neural cell line B49 were maintained in RPMI 1640 medium supplemented with 10% fetal bovine serum (FBS) (BioWhittaker) and 2 mM L-glutamine. The M14/HMW-MAA cells which express HMW-MAA following transfection of M14 cells with a plasmid DNA of pcDNA 3.1™ (+)/full length of HMW-MAA DNA construct (Yang et al., J Cell Biol 165:881-891, 2004) were grown in RPMI 1640 medium supplemented with 10% FBS, 2 mM L-glutamine and 0.4 mg/ml G418 (Promega, Madison, Wis.). Cells were cultured at 37° C. in a 5% CO2 atmosphere. Cell lysates were prepared as described (Desai et al., Cancer Res 58:2417-2425, 1998, herein incorporated by reference). Lesions of melanocytic origin were obtained from patients who had undergone surgery in the Department of Dermatology at Kumamoto University School of Medicine (Kumamoto, Japan). The diagnosis of melanoma lesions was based on histopathologic characteristics. The frozen and formalin-fixed tissue sections were prepared as described previously (Desai et al., Cancer Res 58:2417-2425, 1998, herein incorporated by reference).
The indirect immunoperoxidase staining of frozen and formalin-fixed tissue sections was performed as described previously (Desai et al., Cancer Res 58:2417-2425, 1998, herein incorporated by reference).

HMW-MAA [3] = target: T1, HMW-MAA; experiment: Competition assay to map the antigenic determinant on SK-MEL-28 cells; format: binding; design: from tissue; host or cells: human nevi, primary and metastatic melanoma lesions (frozen sections); details: biotinylated mAb VF1-TP34, competitor PP scFv C21
Experimental: FIG. 5. Spatial proximity of the determinant defined by scFv C21 and of that defined by mouse mAb VF1-TP34 on HMW-MAA^+ melanoma cells SK-MEL-28. Varying concentrations of mAb VF1-TP34 (-●-) (left panel) were mixed with biotinylated scFv C21 (0.25 μg/well). The mixture was then transferred to wells containing HMW-MAA^+ cells and incubated for 1 h at 4° C. Binding of antibodies was detected using SA-HRP. Results are expressed as % inhibition. Likewise, varying amounts of PP scFv C21 (-▴-) (right panel) were mixed with biotinylated mAb VF1-TP34 (40 ng/well). The mixture was then transferred to wells containing HMW-MAA^+ cells and incubated for 1 h at 4° C. […]
The ELISA to test the reactivity of soluble scFv antibodies with synthetic peptides and melanoma cells and of mouse immune sera with melanoma cells and with peptides was performed as described (Desai et al., Cancer Res 58:2417-2425, 1998; Desai et al., J Immunol 165:3275-3283, 2000; Matsui et al., J Immunol 139:2088-2095, 1987). Results are expressed as absorbance of optical density (O.D.) at 450 nm. The competition assay to map the antigenic determinant recognized by scFv C21 was performed by mixing biotinylated scFv C21 (0.25 μg/well) with two-fold dilutions of mouse mAb or scFv PP or by mixing biotinylated mAb (at an optimal amount giving absorbance, measured at 450 nm of 1.0) with two fold dilutions of scFv PP. […]

B1: scFv C21: HMW-MAA-specific fully human scFv from semi-synthetic phage display library; VH SEQ ID NO: 5, VL SEQ ID NO: 6 (antibody, listed as Homo sapiens, V domains shown)
VH: QVQLVQSGAEVKKPGSSVKVSCKASGGTFSSYAISWVRQAPGQGLEWMGGIIPIFGTANYAQKFQGRVTITADESTSTAYMELSSLRSDDTAVYYCARALDPITFDSWGQGTLVTVSR
VL: SELTQDPAVSVALGQTVRITCQGDSLRSYYASWYQQKPGQAPVLVIYGKNNRPSGIPDRFSGSSSGNTASLTITGAQAEDEADYYCNSRDSSGNHVVFGGGTKLTVLGRS
modifications: scFv linker
- Reactivity in ELISA with Colo38, FF2376 fibroblasts and T24 bladder carcinoma cells (HMW-MAA [1]): selective reactivity with Colo38 cells
- Staining of formalin fixed paraffin embedded melanocytic lesions (HMW-MAA [2]; formalin fixed paraffin embedded): did not stain
- Staining of frozen melanocytic lesions in the immunoperoxidase reaction (HMW-MAA [2]; frozen sections): stained frozen melanocytic lesions
- Metastatic lesions stained with a heterogeneous pattern (HMW-MAA [2]; metastatic lesions): 3 lesions
- Metastatic lesions stained with a homogeneous pattern (HMW-MAA [2]; metastatic lesions): 3 lesions
- Metastatic lesions with cytoplasmic staining (HMW-MAA [2]; metastatic lesions): 3 lesions
- Metastatic lesions with membranous and cytoplasmic staining (HMW-MAA [2]; metastatic lesions): 3 lesions
- Primary lesions stained with a heterogeneous pattern (HMW-MAA [2]; out of 15 primary lesions): 2 lesions
- Primary lesions stained with a homogeneous pattern (HMW-MAA [2]; out of 15 primary lesions): 9 lesions
- Pigmented nevi stained homogeneously (membranous and cytoplasmic pattern) (HMW-MAA [2]; pigmented nevi): 4
- Primary lesions with cytoplasmic staining (HMW-MAA [2]; primary lesions): 6 lesions
- Primary lesions with membranous and cytoplasmic staining (HMW-MAA [2]; primary lesions): 4 lesions
- Primary lesions with membranous staining (HMW-MAA [2]; primary lesions): 1 lesions
- Inhibition of binding of mAb VF1-TP34 to SK-MEL-28 cells (HMW-MAA [3]): partially inhibited each other
